PMC6173309

Biological target: SOX11 (UniProt P35716 34-132)
Test: EMSA

SOX11, sequence (P35716 34-132): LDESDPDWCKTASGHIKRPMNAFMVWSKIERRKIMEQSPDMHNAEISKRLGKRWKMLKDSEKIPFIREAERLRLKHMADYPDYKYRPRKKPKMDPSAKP

B1: modified Widom 601 with SOX11 site, free DNA (dsDNA)
DNA 1: CTGGAGAATCCCGGTCTGCAGGCCGCTCAATTGGTCGTAGACAGCTCTAGCACCGCTTAAACGCACGTACGGTATTGTTTATTTTGTTCCTCCGCCAAGGGGATTACTCCCTAGTCTCCAGGCACGTGTCAGATATATACATCCTGT
DNA 2: ACAGGATGTATATATCTGACACGTGCCTGGAGACTAGGGAGTAATCCCCTTGGCGGAGGAACAAAATAAACAATACCGTACGTGCGTTTAAGCGGTGCTAGAGCTGTCTACGACCAATTGAGCGGCCTGCAGACCGGGATTCTCCAG
B1: binds.
